For experiment [1], the target named is Ras binding domain of c-Raf (RsBD)-GFP11. The experiment is described as follows: tripartite split-GFP complementation in GFP1-9 cells, flow cytometry. (Flow cytometry measures light scatter and fluorescence of single cells or particles in a stream.)
The target of experiment [2] is GFP10-RhoB (wild-type RhoB fused to GFP10). In words: cell-based or functional assay.
Experiment [3] has as its target T1, Rho-binding domain of Rhotekin (RBD)-GFP11.
T1 construct: also called RBD-11
T1 chain: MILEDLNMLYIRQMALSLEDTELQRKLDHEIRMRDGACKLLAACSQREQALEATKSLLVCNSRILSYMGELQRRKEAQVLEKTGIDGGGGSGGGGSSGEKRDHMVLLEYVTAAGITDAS
In words: tripartite split-GFP complementation in GFP1-9 cells, flow cytometry.

Experiment [4] concerns the target T1, Rho-binding domain of Rhotekin …. The experiment is described as follows: tripartite split-GFP complementation in GFP1-9 cells, fluorescence microscopy.
Experiment [5] has as its target reconstituted split-GFP (positive cells: 10-R-11, 10-Zipper-11, 10-zipper/zipper-11 with GFP1-9). The experiment is described as follows: cell-based or functional assay.

Regarding “GFP10-H-Ras G12V (dominant positive, GTP-bound variant)”, in experiment [1], the induction ratio of split-GFP fluorescence against GDP-bound (S17N) H-Ras was 3 fold.

“cell-permeant recombinant TAT-C3 exoenzyme (from UniProt P15879 41-251)” came in with an inhibition of RhoB activation (split-GFP fluorescence) in experiment [2] above 10 µg/mL.

B1: GFP10-RhoB Q63L (constitutively active, dominant positive variant) (other)
chain: MGDLPDDHYLSTQTILSKDLNIDGGGGSGGGGSSGAAIRKKLVVVGDGACGKTCLLIVFSKDEFPEVYVPTVFENYVADIEVDGKQVELALWDTAGLEDYDRLRPLSYPDTDVILMCFSVDSPDSLENIPEKWVPEVKHFCPNVPIILVANKKDLRSDEHVRTELARMKQEPVRTDDGRAMAVRIQAYDYLECSAKTKEGVREVFETATRAALQKRYGSQNGCINCCKVL
notes: also called GFP10-Rho active mutant (Q63L)
For B1, the “fold induction of split-GFP fluorescence against the inactive variant (T19N)” value in experiment [3] amounted to 5 fold.

B2: GFP10-RhoB T19N (dominant negative variant) (other)
chain: MGDLPDDHYLSTQTILSKDLNIDGGGGSGGGGSSGAAIRKKLVVVGDGACGKNCLLIVFSKDEFPEVYVPTVFENYVADIEVDGKQVELALWDTAGQEDYDRLRPLSYPDTDVILMCFSVDSPDSLENIPEKWVPEVKHFCPNVPIILVANKKDLRSDEHVRTELARMKQEPVRTDDGRAMAVRIQAYDYLECSAKTKEGVREVFETATRAALQKRYGSQNGCINCCKVL
With B2, in experiment [4], the binding result was “no binding”.

B3: Myc-VHH anti-GFP nanobody (VHH)
VHH: QVQLVESGGALVQPGGSLRLSCAASGFPVNRYSMRWYRQAPGKEREWVAGMSSAGDRSSYEDSVKGRFTISRDDARNTVYLQMNSLKPEDTAVYYCNVNVGFEYWGQGTQVTVSS
B3 gave a mean fluorescence intensity of the positive cells in experiment [5] of 4 fold.
